Holding throughout (assay): SPR, KD relative to WT C2;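 further: biacore SPR at 37 °C, anti-C2 mAbs captured on anti-human IgG chips with alanine or serine point mutants of C2 as analyte, KD from 1:1 fit compared with wild-type C2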
Background: Surface plasmon resonance follows binding to a sensor surface in real time, without labels.

Assay [1] addresses T1, human C2 H435A (human, UniProt P06681 21-752).
T1 sequence: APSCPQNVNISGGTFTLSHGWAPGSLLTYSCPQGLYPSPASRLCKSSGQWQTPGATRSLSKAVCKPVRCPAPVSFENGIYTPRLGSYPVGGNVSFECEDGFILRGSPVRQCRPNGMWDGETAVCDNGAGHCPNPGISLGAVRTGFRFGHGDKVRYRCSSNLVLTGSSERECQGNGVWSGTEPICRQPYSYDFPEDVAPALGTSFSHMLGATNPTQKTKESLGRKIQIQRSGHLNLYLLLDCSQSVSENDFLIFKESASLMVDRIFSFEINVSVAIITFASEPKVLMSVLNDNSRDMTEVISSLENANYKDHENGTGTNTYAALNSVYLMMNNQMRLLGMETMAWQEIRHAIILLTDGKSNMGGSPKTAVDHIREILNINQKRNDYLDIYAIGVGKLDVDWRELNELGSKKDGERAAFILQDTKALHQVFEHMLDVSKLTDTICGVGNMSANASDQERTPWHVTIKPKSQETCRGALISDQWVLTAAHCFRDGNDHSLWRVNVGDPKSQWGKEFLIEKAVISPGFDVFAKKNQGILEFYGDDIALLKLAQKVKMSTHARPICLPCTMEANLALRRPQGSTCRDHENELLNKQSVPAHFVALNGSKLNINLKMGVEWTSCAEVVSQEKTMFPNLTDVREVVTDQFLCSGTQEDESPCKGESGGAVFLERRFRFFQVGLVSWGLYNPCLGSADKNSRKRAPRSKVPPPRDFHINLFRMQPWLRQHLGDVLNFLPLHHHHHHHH

The target in assay [2] is T2, human C2 L439A (human, UniProt P06681 21-752).
T2 sequence: T1 sequence with A415H, L419A

In assay [3] the target is T3, human C2 V418A (human, UniProt P06681 21-752).
T3 sequence: T1 sequence with V398A, A415H

The target in assay [4] is T4, human C2 E686A (human, UniProt P06681 21-752).
T4 sequence: T1 sequence with A415H, E666A

Numbering of substitutions follows the chain as printed.

Here are results for 1 molecule from patent publication US20220332804A1 (CSL INNOVATION, published 2022).

B1: RF16-242 (antibody, human IgG4 S228P, lambda, V domains shown)
VH: EVQLLQSGAEVKKPGESLKISCKGSGYSFTSYWIGWVRQMPGKGLEWMGIIYPGDSDTRYSPSFQGQVTISADKSISTAYLQWSSLKASDTAMYYCARRGHYGDYFDYWGQGTLVTVSS
VL: SYELTQPPSVSVSPGQTARITCSGDALPKKYAYWYHQKSGQAPVLVIYEDRRRPSEIPERFSGSSSGTMATLTITGAQVEDEGVYFCYSRDRAGNQRVFGGGTQLTVLG
notes: pH-dependent anti-C2 antibody from a phage display library
Consider B1, for which the Fold diff in assay [1] is 9 fold; in assay [2] it was 24 fold; in assay [3], 1 fold; in assay [4], 5 fold.
